According to the supplement of paper PMC12338614:
± gives the uncertainty stated by the source.

B1: library; numbered along this chain (parent)
chain: MEVVDPQQLGMFTEGELMSVGMDTFIHRIDSTEVIYQPRRKRAKLIGKYLMGDLLGEGSYGKVKEVLDSETLCRRAVKILKKKKLRRIPNGEANVKKEIQLLRRLRHKNVIQLVDVLYNEEKQKMYMVMEYCVCGMQEMLDSVPEKRFPVCQAHGYFCQLIDGLEYLHSQGIVHKDIKPGNLLLTTGGTLKISDLGVAEALHPFAADDTCRTSQGSPAFQPPEIANGLDTFSGFKVDIWSAGVTLYNITTGLYPFEGDNIYKLFENIGKGSYAIPGDCGPPLSDLLKGMLEYEPAKRFSIRQIRQHSWFRKKHPPAEAPVPIPPSPDTKDRWRSMTVVPYLEDLHGADEDEDLFDIEDDIIYTQDFTVPGQVPEEEASHNGQRRGLPKAVCMNGTEAAQLSTKSRAEGRAPNPARKACSASSKIRRLSACKQQ

Variants of: B1
Assay: STK11 functional score (HeLa growth suppression), rescaled enrichment; synonymous median = 1, nonsense median = 0 (normalised score)
Conditions: with HeLa; variant type: missense
Summary of the method: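 In HeLa, Bxb1 integrated POPCode codon-randomised libraries of codon-optimised STK11 at an AAVS1 landing pad; three regions were each transfected three times. Integrants, marked as BFP-negative and mCherry-positive, were FACS-sorted 4–5 days after electroporation and expanded for about two weeks before tiled gDNA amplicons were sequenced on NextSeq (~2 million reads per tile). Each functional score is a post/pre-selection log ratio corrected to wild type, rescaled to the synonymous and nonsense medians, and merged across codons and replicate transfections, with error estimated by bootstrapping.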

STK11 functional score, by site and new letter:
L400: K 0.775 ± 0.24 | H 1.42 ± 0.29 | I 1.55 ± 0.28 | T 1.11 ± 0.44 | D 1.19 ± 0.3 | F 1.46 ± 0.14 | G 1.48 ± 0.14 | Q 1.27 ± 0.42 | S 1.07 ± 0.21 | V 1.41 ± 0.26 | W 1.56 ± 0.3 | Y 1.55 ± 0.2 | E 1.58 ± 0.21 | R 1.37 ± 0.26 | A 1.64 ± 0.3 | N 1.63 ± 0.31
A410: P 0.257 ± 0.39 | V 1.32 ± 0.21 | R 1.6 ± 0.14 | M 0.531 ± 0.42 | L 1.42 ± 0.2 | H 1.23 ± 0.54 | Y 1.38 ± 0.37 | W 1.68 ± 0.24 | Q 1.21 ± 0.37 | I 1.54 ± 0.22 | K 1.6 ± 0.2 | D 1.17 ± 0.1 | C 1.33 ± 0.13 | G 1.23 ± 0.24 | N 1.32 ± 0.11 | F 1.4 ± 0.2 | T 0.749 ± 0.21 | E 1.34 ± 0.14 | S 1.4 ± 0.26
A397: W 0.847 ± 0.43 | I 1.51 ± 0.27 | F 1.35 ± 0.38 | T 1.51 ± 0.23 | P 1.18 ± 0.49 | C 1.04 ± 0.15 | G 1.14 ± 0.17 | H 1.64 ± 0.3 | R 1.46 ± 0.33 | E 1.44 ± 0.2 | M 1.62 ± 0.2 | Y 1.38 ± 0.46 | S 1.26 ± 0.17 | V 0.799 ± 0.24 | N 0.679 ± 0.15 | K 0.947 ± 0.67 | L 1.27 ± 0.27 | D 1.32 ± 0.35
P411: F 0.906 ± 0.61 | L 1.16 ± 0.27 | E 1.61 ± 0.33 | V 1.62 ± 0.12 | K 1.57 ± 0.35 | M 1.58 ± 0.23 | G 1.14 ± 0.49 | I 1.55 ± 0.15 | A 1.04 ± 0.31 | R 0.986 ± 0.35 | W 0.581 ± 0.075 | S 1.23 ± 0.49 | D 1.59 ± 0.15 | N 1.55 ± 0.18
K416: I 1.55 ± 0.19 | C 1.14 ± 0.2 | H 1.42 ± 0.19 | G 1.55 ± 0.31 | F 0.683 ± 0.49 | D 1.61 ± 0.12 | L 0.986 ± 0.17
T402: V 0.686 ± 0.18 | P 1.54 ± 0.46 | I 1.25 ± 0.2 | F 1.18 ± 0.12 | K 1.3 ± 0.1 | L 1.23 ± 0.27 | A 1.42 ± 0.28 | N 0.935 ± 0.33 | D 1.21 ± 0.39 | C 1.33 ± 0.4 | W 1.44 ± 0.23 | G 1.13 ± 0.21 | H 0.157 ± 0.63 | Y 1.43 ± 0.37 | S 1.31 ± 0.18 | E 1.59 ± 0.24 | M 1.23 ± 0.11
E396: W 1.49 ± 0.21 | R 1.53 ± 0.22 | N 1.49 ± 0.1 | M 1.47 ± 0.39 | V 1.55 ± 0.28 | Y 1.23 ± 0.21 | T 1.08 ± 0.61 | Q 1.18 ± 0.64 | S 1.18 ± 0.19
K403: R 1.03 ± 0.69 | G 1.46 ± 0.23 | L 1.25 ± 0.46 | C 0.656 ± 0.13 | N 1.42 ± 0.6 | M 0.00927 ± 0.14 | A 1.6 ± 0.27 | D 1.53 ± 0.2 | S 0.892 ± 0.59 | Y 1.59 ± 0.21 | T 1.19 ± 0.42 | I 1.04 ± 0.46 | F 1.2 ± 0.23 | V 0.598 ± 0.14 | H 1.53 ± 0.17 | W 1.54 ± 0.27 | Q 1.61 ± 0.37
N412: L 1.62 ± 0.21 | P 1.56 ± 0.35 | Q 1.37 ± 0.27 | Y 1.55 ± 0.3 | V 1.33 ± 0.2 | H 1.1 ± 0.46 | I 1.21 ± 0.43 | E 1.52 ± 0.17 | A 1.53 ± 0.26 | F 1.23 ± 0.15 | D 1.53 ± 0.32 | C 1.11 ± 0.1 | G 1.63 ± 0.15 | W 0.786 ± 0.18 | R 1.57 ± 0.2 | K 0.831 ± 0.33 | T 1.09 ± 0.53 | M 0.405 ± 0.69 | S 1.48 ± 0.23
A406: S 1.41 ± 0.33 | M 0.606 ± 0.2 | W 1.46 ± 0.11 | N 1.58 ± 0.32 | I 1.6 ± 0.32 | P 1.21 ± 0.54 | Q 1.56 ± 0.33 | C 1.52 ± 0.2 | T 1.42 ± 0.35 | L 1.57 ± 0.22 | D 1.4 ± 0.36 | G 1.33 ± 0.31 | Y 1.07 ± 0.58 | E 1.45 ± 0.3 | R 1.59 ± 0.28 | H 1.6 ± 0.25 | F 1.4 ± 0.3 | K 1.28 ± 0.46 | V 1.52 ± 0.28
R409: M 1.15 ± 0.63 | F 0.845 ± 0.4 | T 1.47 ± 0.28 | E 1.57 ± 0.19 | W 1.42 ± 0.11 | A 1.49 ± 0.2 | C 1.28 ± 0.46 | G 1.25 ± 0.32 | S 1.02 ± 0.27 | L 1.02 ± 0.54 | P 1.57 ± 0.35 | K 1.39 ± 0.36 | N 1.55 ± 0.12 | D 1.09 ± 0.66 | V 1.22 ± 0.21 | I 1.24 ± 0.2 | Y 1.53 ± 0.19
P413: G 1.56 ± 0.22 | D 1.6 ± 0.33 | A 1.5 ± 0.2 | T 1.44 ± 0.24 | S 1.46 ± 0.27 | I 1.56 ± 0.28 | N 1.6 ± 0.11 | K 1.55 ± 0.14 | W 0.886 ± 0.37 | E 1.59 ± 0.25 | M 1.53 ± 0.17 | Y 1.47 ± 0.26 | V 1.4 ± 0.24 | H 1.61 ± 0.12 | C 1.17 ± 0.41 | L 1.31 ± 0.13 | R 1.49 ± 0.33
A414: R 1.58 ± 0.31 | V 1.48 ± 0.14 | E 1.54 ± 0.14 | M 1.56 ± 0.22 | I 1.33 ± 0.28 | F 1.38 ± 0.14 | L 1.16 ± 0.34 | S 1.57 ± 0.18 | W 1.63 ± 0.15 | Y 1.58 ± 0.12 | K 1.55 ± 0.26 | G 1.21 ± 0.26 | C 1.59 ± 0.29 | D 0.946 ± 0.29
S404: E 1.34 ± 0.5 | A 1.31 ± 0.34 | W 1.43 ± 0.42 | N 1.52 ± 0.28 | K 1.56 ± 0.26 | H 1.6 ± 0.28 | C 1.14 ± 0.56 | G 1.57 ± 0.28 | M 1.58 ± 0.28 | D 1.18 ± 0.3 | F 0.794 ± 0.61 | T 1.23 ± 0.67 | Y 0.966 ± 0.14 | L 1.47 ± 0.25 | I 1.22 ± 0.13 | V 1.53 ± 0.27
E407: L 0.778 ± 0.17 | G 0.689 ± 0.64 | P 1.6 ± 0.15 | I 1.61 ± 0.22 | A 1.52 ± 0.23 | S 1.57 ± 0.18 | W 0.194 ± 0.092 | Q 0.809 ± 0.34 | C 1.21 ± 0.12 | R 1.52 ± 0.15 | M 1.58 ± 0.15 | T 1.61 ± 0.28 | F 1.26 ± 0.58 | K 1.55 ± 0.37 | V 1.38 ± 0.25 | D 1.56 ± 0.25
A398: S 1.16 ± 0.25 | M 1.63 ± 0.18 | I 1.13 ± 0.64 | D 1.18 ± 0.25 | Y 1.23 ± 0.29 | N 1.15 ± 0.19 | W 0.886 ± 0.088 | C 1.35 ± 0.39 | E 1.55 ± 0.25 | L 1.16 ± 0.15 | G 1.1 ± 0.38 | T 1.3 ± 0.21 | R 1.42 ± 0.24 | Q 1.58 ± 0.22 | K 1.53 ± 0.22 | V 1.01 ± 0.2 | F 1.12 ± 0.42
R405: L 1.59 ± 0.28 | M 1.6 ± 0.2 | P 1.27 ± 0.49 | K 1.33 ± 0.42 | S 1.54 ± 0.37 | D 0.895 ± 0.18 | G 1.48 ± 0.22 | N 1.33 ± 0.36 | C 1.3 ± 0.34 | I 1.6 ± 0.22 | F 1.59 ± 0.27 | V 1.62 ± 0.28 | H 1.59 ± 0.29 | Y 0.397 ± 0.55 | T 1.24 ± 0.43
R415: M 1.4 ± 0.16 | G 1.53 ± 0.18 | I 0.924 ± 0.23 | T 0.914 ± 0.57 | C 1.25 ± 0.14 | E 1.48 ± 0.33 | N 1.58 ± 0.34 | F 0.952 ± 0.52 | H 1.6 ± 0.28 | K 1.17 ± 0.5 | W 1.5 ± 0.18 | S 1.5 ± 0.27 | D 1.43 ± 0.23 | L 1.61 ± 0.12 | V 1.57 ± 0.28 | Y 1.49 ± 0.16
G408: E 1.54 ± 0.12 | M 1.56 ± 0.17 | S 1.59 ± 0.26 | R 1.59 ± 0.16 | L 1.59 ± 0.26 | T 1.61 ± 0.15 | Y 1.49 ± 0.16 | N 1.54 ± 0.35 | A 1.61 ± 0.34 | V 1.2 ± 0.11 | I 1.51 ± 0.14 | H 1.63 ± 0.17 | K 1.56 ± 0.24 | W 1.48 ± 0.2 | F 1.24 ± 0.52
Q399: Y 1.42 ± 0.2 | F 1.27 ± 0.39 | R 0.852 ± 0.19 | A 1.11 ± 0.58 | P 1.35 ± 0.52 | E 1.47 ± 0.45 | M 0.653 ± 0.13 | T 1.29 ± 0.25 | G 1.51 ± 0.28 | D 1.39 ± 0.34 | W 1.43 ± 0.38 | S 0.903 ± 0.3 | V 0.994 ± 0.34 | I 1.05 ± 0.34 | K 0.826 ± 0.39 | L 1.31 ± 0.25 | H 1.13 ± 0.63 | N 1.39 ± 0.35 | C 1.23 ± 0.5
S401: C 1.05 ± 0.36 | V 1.41 ± 0.24 | R 1.11 ± 0.38 | T 0.884 ± 0.64 | I 1.49 ± 0.15 | G 0.991 ± 0.7 | E 1.24 ± 0.46 | M 1.44 ± 0.2 | P 1.07 ± 0.67 | L 1.51 ± 0.28 | D 1.19 ± 0.36 | F 1.49 ± 0.24 | W 0.786 ± 0.71 | A 1.54 ± 0.33 | H 1.49 ± 0.16 | N 1.4 ± 0.14 | K 1.44 ± 0.28
